Data as given in patent publication US20060083734A1, “Composition and method for repairing nerve damage and enhancing functional recovery of nerve” (priority 2004, published 2006).

What was measured:
Type in all cases: in vivo, rat
MCA occluded rats [1] = experiment: Infarct volume analysis by TTC staining after MCA occlusion and reperfusion; conditions: Long-Evans rats, 1 hr MCA occlusion, end of 4th week after FCI injury, topical GDNF 1 μg, mean±SEM, n=6
Experimental: (§1) Animals: The example conforms to the Guide for the Care and Use of Laboratory Animals, published by the US National Institutes of Health (NIH publication NO. 85-23, revised 1996). Male Long-Evans rats (National Lab. Animal Breeding and Research Center) weighing 300-350 g were used in this study. These animals were housed in a room with controlled temperature (24±1° C.) and humidity (55±5%) under a 12:12 h light-dark cycle. They were allowed free access to food and water.
Surgical procedure: The technique was a modification of the method of Huang et al (Huang S S, Tsai S K, Chih C L, Chiang L Y, Hsieh H M, Teng C M, Tsai M C. Neuroprotective effect of hexasulfobutylated C60 on rats subjected to focal cerebral ischemia. Free Radic Biol Med. 2001;30:643-649). In brief, each male Long-Evans rat was anesthetized by inhalation of a nitrous oxide/oxygen/halothane (69%:30%:1%) mixture during surgical preparation. Body temperature was maintained during surgery at 37±0.5° C. with a heating pad servo-controlled by a rectal probe. […] Measurements were performed before, during and right after unilateral MCA occlusion.
Focal ischemic infarcts were produced in the right lateral cerebral cortex in the territory of the MCA. Both common carotid arteries were exposed by midline anterior cervical incision. […]

MCA occluded rats [2] = experiment: Accelerating rotarod test after FCI injury; conditions: topical GDNF 1 μg
Experimental: as §1
(§2) Surgical procedure: The technique was a modification of the method of Huang et al (Huang S S, Tsai S K, Chih C L, Chiang L Y, Hsieh H M, Teng C M, Tsai M C. Neuroprotective effect of hexasulfobutylated C60 on rats subjected to focal cerebral ischemia. Free Radic Biol Med. 2001;30:643-649). […]
The accelerating rotarod was used to assess motor deficit following ischemic injury in rats (Hamm R J, Pike B R, O'Dell D M, Lyeth B G, Jenkins L W. The rotarod test: an evaluation of its effectiveness in assessing motor deficits following traumatic brain injury. J Neurotrauma. 1994; 11:187-196). The rats were placed on rungs of the accelerating rotarod and the time the animals remained on the rotarod was measured. […] The time in seconds at which each animal fell off the rungs was recorded. […]
(§3) Statistics. Data are expressed as mean±standard error of mean (S.E.M.). […]

MCA occluded rats [3] = experiment: Grasping power test after FCI injury; conditions: topical GDNF 1 μg
Experimental: as §1, §2
The grasping power test was a modification of the method of Bertelli et al (Bertelli J A, Mira J C. The grasping test: a simple behavioral method for objective quantitative assessment of peripheral nerve regeneration in the rat. J Neurosci Methods. 1995;59:151-155). […] Rats were allowed to grasp the bar while being lifted by the tail with increasing firmness until they loosened their grip and the grasping power was scored.
as §3

[4] = end of 1st week after FCI injury
[5] = end of 4th week after FCI injury

B1: Glial cell line-derived neurotrophic factor (protein, UniProt P39905 78-211, looked up)
Glial cell line-derived …: SPDKQMAVLPRRERNRQAAAANPENSRGKGRRGQRGKNRGCVLTAIHLNVTDLGLGYETKEELIFRYCSGSCDAAETTYDKILKNLSRNRRLVSDKVGQACCRPIAFDDDLSFLDDNLVYHILRKHSAKRCGCI
notes: GDNF (1 μg) dissolved in HBSS solution, topically applied
infarct volume (MCA occluded rats [1]): 108.0±12.1 mm^3 | mean latency to stay on the rotarod, of baseline (MCA occluded rats [2]; [4]): 50.3% | mean latency to stay on the rotarod, of baseline (MCA occluded rats [2]; [5]): 67.3% | mean value of grasping power, of baseline (MCA occluded rats [3]; [4]): 71.7% | mean value of grasping power, of baseline (MCA occluded rats [3]; [5]): 97.6%
